The supplement of paper PMC7877785
± gives the uncertainty stated by the source.

Experiment: self-splicing fitness, log relative to wild type (ln ratio); higher = more splicing; Tetrahymena group I intron in knt gene, E. coli kanamycin selection, DiMSum; sequences stand for … in CUCUCU…GGAGGGAAAAGUUAUCAGGCAUGCACCUGGUAGCUAGUCUUUAAACCAAUAGAUUGCAUCGGUUUAAAAGGCAAGACCGUCAAAUUGCGGGAAAGGGGUCAACAGCCGUUCAGUACCAAGUCUCAGGGGAAACUUUGAGAUGGCCUUGCAAAGGGUAUGGUAAUAAGCUGACGGACAUGGUCCUAACCACGCAGCCAAGUCCUAAGUCAACAGAUCUUCUGUUGAUAUGGAUGCAGUUCACAGACUAAAUGUCGGUCGGGGAAGAUGUAUUCUUCUCAUAAGAUAUAGUCGGACCUCUCCUUAAUGGGAGCUAGCGGAUGAAGUGAUGCAACACUGGAGCCGCUGGGAACUAAUUUGUAUGCGAAAGUAUAUUGAUUAGUUUUGGAGUACUCGUGGUCG
Method in brief: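 Six replicate transformations of E. coli BL21(DE3) with a pET-22b(+) library were grown overnight at 37°C or 30°C. The library randomised all eight P1ex-region intron nucleotides, the intron lying in the knt kanamycin-resistance gene, and plates were LB agar with or without 25 μg/mL kanamycin plus 100 μg/mL carbenicillin, 50 μM IPTG and 0.2% rhamnose. Pooled colonies were amplicon-sequenced on an Illumina HiSeq 2500, and fitness is the DiMSum error-weighted combination of wild-type-normalised replicate fold changes, kanamycin versus none.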

Sequence	self-splicing fitness (ln) (30 °C)	self-splicing fitness (ln) (37 °C)
UAUUAGCAAUAUUACGGCAG	-0.281 ± 0.085	-0.424 ± 0.12
UAUUAGCAAUAUUACGGCCA	-0.0346 ± 0.21	-0.902 ± 0.16
UAUUAGCAAUAUUACGGCGG	-0.834 ± 0.11	-0.195 ± 0.12
UAUUAGCAAUAUUACGGGCA	-0.498 ± 0.19	-0.39 ± 0.17
UAUUAGCAAUAUUACGGUCA	-0.76 ± 0.1	-0.0892 ± 0.095
UAUUAGCAAUAUUACGUAGG	-1.57 ± 0.14	-1.33 ± 0.23
UAUUAGCAAUAUUACGUCAU	-3.69 ± 0.31	-2.81 ± 0.27
UAUUAGCAAUAUUACGUCGA	-1.27 ± 0.16	-0.984 ± 0.17
UAUUAGCAAUAUUACGUGUG	-0.846 ± 0.067	-0.549 ± 0.084
UAUUAGCAAUAUUACGUGUU	-3.04 ± 0.29	-2.86 ± 0.32
UAUUAGCAAUAUUACGUUUU	–	-0.0777 ± 0.32
UCAAAGCAAUAUUACGAAUC	–	-2.76 ± 0.38
UCAAAGCAAUAUUACGACCU	-1.84 ± 0.19	-0.48 ± 0.19
UCAAAGCAAUAUUACGCAGC	-3.94 ± 0.29	-2.72 ± 0.17
UCAAAGCAAUAUUACGCCAU	-3.37 ± 0.24	-2.27 ± 0.19
UCAAAGCAAUAUUACGCUAU	-3.44 ± 0.22	-1.41 ± 0.18
UCAAAGCAAUAUUACGGACA	-0.451 ± 0.13	0.0835 ± 0.14
UCAAAGCAAUAUUACGGCAA	-1.37 ± 0.15	-0.568 ± 0.12
UCAAAGCAAUAUUACGGCUA	-0.599 ± 0.1	-1.31 ± 0.13

Sequence	self-splicing fitness (ln) (30 °C)	self-splicing fitness (ln) (37 °C)
UCAAAGCAAUAUUACGGCUC	–	-0.154 ± 0.2
UCAAAGCAAUAUUACGGGAU	-2.04 ± 0.16	-2.46 ± 0.25
UCAAAGCAAUAUUACGGGGG	-2.55 ± 0.14	-1.49 ± 0.14
UCAAAGCAAUAUUACGGUCA	-0.88 ± 0.1	-0.6 ± 0.1
UCAAAGCAAUAUUACGUAUA	-3.27 ± 0.18	-2.17 ± 0.17
UCAAAGCAAUAUUACGUCAA	-2.84 ± 0.23	-2.71 ± 0.29
UCAAAGCAAUAUUACGUGCU	-4.45 ± 0.3	-2.93 ± 0.21
UCAAAGCAAUAUUACGUGUG	-1.51 ± 0.058	-0.749 ± 0.066
UCACAGCAAUAUUACGAACC	-1.05 ± 0.33	-1.68 ± 0.34
UCACAGCAAUAUUACGACCU	-2.97 ± 0.24	-1.16 ± 0.19
UCACAGCAAUAUUACGAGAC	-4.56 ± 0.46	-2.61 ± 0.2
UCACAGCAAUAUUACGAGGG	-2.01 ± 0.088	-1.28 ± 0.12
UCACAGCAAUAUUACGAGUU	-3.54 ± 0.17	-2.08 ± 0.14
UCACAGCAAUAUUACGAUAG	-2.75 ± 0.14	-1.22 ± 0.12
UCACAGCAAUAUUACGAUUA	-1.43 ± 0.1	-0.545 ± 0.11
UCACAGCAAUAUUACGAUUU	-4.01 ± 0.21	-0.814 ± 0.11
UCACAGCAAUAUUACGCCAA	-3.45 ± 0.44	-2.74 ± 0.38
UCACAGCAAUAUUACGCCUA	-1.95 ± 0.3	-0.577 ± 0.18
UCACAGCAAUAUUACGCGGG	-3.28 ± 0.12	-2.56 ± 0.16
